Reference: patent US20220033460A1, “IDENTIFICATION AND USE OF T CELL EPITOPES IN DESIGNING DIAGNOSTIC AND THERAPEUTIC APPROACHES FOR COVID-19” (priority 2020, published 2022)
Read-outs that look alike come from different tables or passages of the source.

How the values were obtained:
[1] = target: SARS-CoV-2 peptide on HLA-A*24:02 (human); test: barcoded tetramer library on ex vivo CD8+ T cells, single-cell sequencing; T cell clone or line; conditions: chains Valpha:Vbeta
DRB1*07:01 [2] = conditions: modification not given
DRB1*15:01 [3] = conditions: modification not given
DRB1*15:01 [4] = conditions: modification not given; remark: listed apart in the source
DRB1*07:01 [5] = conditions: modification not given; remark: listed apart in the source
DRB1*15:01 [6] = conditions: modification not given; remark: listed apart in the source
DRB1*07:01 [7] = conditions: modification not given; remark: listed apart in the source
DRB1*07:01 [8] = conditions: modification not given; remark: listed apart in the source
DRB1*15:01 [9] = conditions: modification not given; remark: listed apart in the source
DRB1*07:01 [10] = conditions: modification not given; remark: listed apart in the source
DRB1*15:01 [11] = conditions: modification not given; remark: listed apart in the source
DRB1*07:01 [12] = conditions: modification not given; remark: listed apart in the source
DRB1*15:01 [13] = conditions: modification not given; remark: listed apart in the source
DRB1*15:01 [14] = conditions: modification not given; remark: listed apart in the source
DRB1*07:01 [15] = conditions: modification not given; remark: listed apart in the source
DRB1*15:01 [16] = conditions: modification not given; remark: listed apart in the source
DRB1*07:01 [17] = conditions: modification not given; remark: listed apart in the source
DRB1*15:01 [18] = conditions: modification not given; remark: listed apart in the source
DRB1*07:01 [19] = conditions: modification not given; remark: listed apart in the source
DRB01*11:01 [20] = conditions: chains peptide; modification not given
DRB01*04:04 [21] = conditions: chains peptide; modification not given
DRB01*07:01 [22] = conditions: chains peptide; modification not given
DRB01*15:01 [23] = conditions: chains peptide; modification not given
DRB1*07:01 [24] = conditions: modification not given; remark: listed apart in the source
DRB1*15:01 [25] = conditions: modification not given; remark: listed apart in the source
DRB1*07:01 [26] = conditions: modification not given; remark: listed apart in the source
DRB1*07:01 [27] = conditions: modification not given; remark: listed apart in the source
DRB1*15:01 [28] = conditions: modification not given; remark: listed apart in the source
DRB01*11:01 [29] = conditions: modification not given
DRB01*04:04 [30] = conditions: modification not given
DRB01*07:01 [31] = conditions: modification not given
DRB1*07:01 [32] = conditions: modification not given; remark: listed apart in the source
DRB1*15:01 [33] = conditions: modification not given; remark: listed apart in the source
DRB1*07:01 [34] = conditions: modification not given; remark: listed apart in the source
DRB1*15:01 [35] = conditions: modification not given; remark: listed apart in the source
DRB1*07:01 [36] = conditions: modification not given; remark: listed apart in the source
DRB01*15:01 [37] = conditions: modification not given

B1: TCR_76 (protein)
chain 1: QQQVKQSPQSLIVQKGGISIINCAYENTAFDYFPWYQQFPGKGPALLIAIRPDVSEKKEGRFTISFNKSAKQFSLHIMDSQPGDSATYFCAASNRGGSEKLVFGKGTKLTVNP
chain 2: NAGVTQTPKFQVLKTGQSMTLQCAQDMNHEYMSWYRQDPGMGLRLIHYSVGAGITDQGEVPNGYNVSRSTTEDFPLRLLSAAPSQTSVYFCASSYHAGDRGFGYTFGSGTRLTVV
For B1, the No. of Cells [1] was 2 cells.

Binder PFAMQMAYRFNGIGV [… (position 897)] has an IC50 (DRB1*07:01 [2]) of 158 nM.

For KLPDDFTGCVIAWNS [… (position 424)], the IC50 (DRB1*15:01 [3]) was 2060 nM.

QKFNGLTVLPPLLTD [… (position 853)] showed an IC50 (DRB1*15:01 [4]) of 1710 nM.

Work on NFRVQPTESIVRFPN [… (position 317)] yielded an IC50 (DRB1*07:01 [5]) of 1620 nM and an IC50 (DRB1*15:01 [6]) of 1020 nM.

ASQSIIAYTMSLGAE [… (position 688)] was tested, and the IC50 (DRB1*07:01 [7]) was 124 nM.

For NSPRRARSVASQSII [… (position 679)], the IC50 (DRB1*07:01 [8]) was 206 nM and the IC50 (DRB1*15:01 [9]) was 25500 nM.

B2: TCR_101 (protein)
chain 1: EDQVTQSPEALRLQEGESSSLNCSYTVSGLRGLFWYRQDPGKGPEFLFTLYSAGEEKEKERLKATLTKKESFLHITAPKPEDSATYLCAVHLNDYKLSFGAGTTVTVRA
chain 2: NAGVMQNPRHLVRRRGQEARLRCSPVKGHSHVYWYRQLPEEGLKFMVYLQKENIIDESGMPKERFSAEFPKEGPSILRIQQVVRGDSAAYFCASSRPSGQGNNGYTFGSGTRLTVV
With B2 the No. of Cells [1] was 2 cells.

GVYFASTEKSNIIRG [… (position 89)] was tested, and the IC50 (DRB1*07:01 [10]) was 99 nM and the IC50 (DRB1*15:01 [11]) was 15500 nM.

FRSSVLHSTQDLFLP [… (position 43)] showed an IC50 (DRB1*07:01 [12]) of 85 nM and an IC50 (DRB1*15:01 [13]) of 5570 nM.

Work on PLSETKCTLKSFTVE [… (position 295)] yielded an IC50 (DRB1*15:01 [14]) of 15500 nM.

KKFLPFQQFGRDIAD [… (position 557)] showed an IC50 (DRB1*07:01 [15]) of 1630 nM and an IC50 (DRB1*15:01 [16]) of 6440 nM.

TLLALHRSYLTPGDS [… (position 240)] was tested, and the IC50 (DRB1*07:01 [17]) was 298 nM.

Binder TSVDCTMYICGDSTE [… (position 734)] has an IC50 (DRB1*15:01 [18]) of 36700 nM.

For PLVSSQCVNLTTRTQ [… (position 9)], the IC50 (DRB1*07:01 [19]) was 838 nM.

Work on RGHLRIAGHHLGRCDIKDLPKEI [SEQ ID NO 307] yielded an IC50 (DRB01*11:01 [20]) of 561 nM, an IC50 (DRB01*04:04 [21]) of 1730 nM and an IC50 (DRB01*07:01 [22]) of 10200 nM. For the same binder, the IC50 (DRB01*15:01 [23]) was 5090 nM.

Binder TWRVYSTGSNVFQTR [… (position 632)] has an IC50 (DRB1*07:01 [24]) of 220 nM and an IC50 (DRB1*15:01 [25]) of 1950 nM.

PAYTNSFTRGVYYPD [… (position 26)] gave an IC50 (DRB1*07:01 [26]) of 153 nM.

With TVEKGIYQTSNFRVQ [… (position 307)] the IC50 (DRB1*07:01 [27]) was 316 nM and the IC50 (DRB1*15:01 [28]) was 378 nM.

PKYVKQNTLKLAT showed an IC50 (DRB01*11:01 [29]) of 257 nM, an IC50 (DRB01*04:04 [30]) of 5310 nM and an IC50 (DRB01*07:01 [31]) of 2320 nM.

DSLSSTASALGKLQD [… (position 936)] gave an IC50 (DRB1*07:01 [32]) of 1020 nM and an IC50 (DRB1*15:01 [33]) of 10900 nM.

In the case of TFEYVSQPFLMDLEG [… (position 167)], the IC50 (DRB1*07:01 [34]) is reported as 442 nM and the IC50 (DRB1*15:01 [35]) is reported as 7660 nM.

B3: TCR_109 (protein)
chain 1: AQKITQTQPGMFVQEKEAVTLDCTYDTSDQSYGLFWYKQPSSGEMIFLIYQGSYDEQNATEGRYSLNFQKARKSANLVISASQLGDSAMYFCAMRDSNSNSGYALNFGKGTSLLVTP
chain 2: DAEITQSPRHKITETGRQVTLACHQTWNHNNMFWYRQDLGHGLRLIHYSYGVQDTNKGEVSDGYSVSRSNTEDLPLTLESAASSQTSVYFCASSDGHQGLQETQYFGPGTRLLVL
Work on B3 yielded a No. of Cells [1] of 2 cells.

In the case of NVVIKVCEFQFCNDP [… (position 125)], the IC50 (DRB1*07:01 [36]) is reported as 6610 nM.

Work on TLLALHRSYLTPGDS yielded an IC50 (DRB01*15:01 [37]) of 257 nM.
